Here are results for 29 sequences from the Immune Epitope Database (IEDB).

Assay in all cases: IEDB peptide-MHC binding, purified MHC/competitive/radioactivity; filed as Kd, often an IC50 or EC50 that approximates it; ≥ and ≤ were set here for values at or beyond the usual limits of such assays
Assay [1] addresses HLA-A*03:01.
Assay [2] has as its target HLA-A*11:01.
Assay [3] deals with HLA-A*68:01.
For assay [4], the target named is HLA-A*31:01.
Assay [5] concerns the target HLA-A*33:01.
[6] abbreviates: source organism: Dengue virus 1 Brazil/97-11/1997.
Where [7] appears, read: source organism: Vaccinia virus WR.
Setting [8] is: source organism: Dengue virus 2 Jamaica/1409/1983.
The mark [9] stands for this setting: source organism: Dengue virus 3 Martinique/1243/1999.
The mark [10] stands for this setting: source organism: SARS coronavirus Tor2.
Setting [11] is: source organism: Mammarenavirus lassaense.
Setting [12] is: source organism: Mammarenavirus whitewaterense.

A word on the Kd: it is the constant that tells how readily two partners part at equilibrium. For the sequence KVDTRTPRAK, the equilibrium dissociation constant (Kd) in assay [1] (setting [6]) turned out to be 7.24 nM.

For the sequence MIKNLTQLFK, the Kd in assay [2] (setting [7]) turned out to be 0.762 nM; in assay [3] (setting [7]), 1.62 nM; in assay [4] (setting [7]), 4.29 nM; in assay [1] (setting [7]) it was 0.828 nM; in assay [5] (setting [7]), 318 nM.

Consider DTPSPPEVER, for which the Kd in assay [3] (setting [6]) turned out to be 610 nM.

As to IMKNTTNTRR, in assay [4] (setting [8]), the Kd was 13.9 nM.

As for FIVPEFAKQY, the Kd in assay [2] (setting [7]) is no less than 69800 nM; in assay [3] (setting [7]) it was 11300 nM; in assay [4] (setting [7]), no less than 70000 nM; in assay [1] (setting [7]), no less than 70100 nM; in assay [5] (setting [7]), no less than 70000 nM.

Consider TWMSAEGAWR, for which the results for the Kd in assay [4] (setting [9]) and in assay [5] (setting [9]) were 248 nM and 375 nM, respectively.

On to TSEKYSKGYK, for which the Kd in assay [2] (setting [7]) was 1050 nM; in assay [3] (setting [7]), 924 nM; in assay [4] (setting [7]), no less than 70000 nM; in assay [1] (setting [7]), no less than 25000 nM; in assay [5] (setting [7]), no less than 70000 nM.

Consider SSNVANYQK, for which the Kd is 54.8 nM in assay [3] (setting [10]), 4040 nM in assay [4] (setting [10]) and no less than 77700 nM in assay [5] (setting [10]).

As for QILMKTANNY, the Kd in assay [2] (setting [7]) was determined as 879 nM; in assay [3] (setting [7]), 5020 nM; in assay [4] (setting [7]), 2380 nM; in assay [1] (setting [7]) it was 106 nM; in assay [5] (setting [7]), 8870 nM.

Take SSESLVYGIR: the Kd in assay [2] (setting [7]) was 476 nM; in assay [3] (setting [7]), 475 nM; in assay [4] (setting [7]), 780 nM; in assay [1] (setting [7]) it was no less than 34800 nM; in assay [5] (setting [7]), 623 nM.

In the case of FLISGKGIGK, in assay [1] (setting [9]), the Kd stood at 53.2 nM.

For the sequence LIDLAFLIK, the Kd in assay [2] (setting [7]) was 462 nM; in assay [3] (setting [7]), no less than 77700 nM; in assay [4] (setting [7]), 2330 nM; in assay [1] (setting [7]) it was 3480 nM; in assay [5] (setting [7]), no less than 77700 nM.

For the sequence IVASVNMVSR, the Kd in assay [3] (setting [9]) was found to be 6.75 nM.

As to VCSFYADPK, the Kd in assay [2] (setting [11]) is 3130 nM; in assay [3] (setting [11]), 5680 nM; in assay [4] (setting [11]), no less than 27200 nM; in assay [1] (setting [11]), 3840 nM; in assay [5] (setting [11]), no less than 77700 nM.

For the sequence GVFKNPCTSH, the Kd in assay [2] (setting [12]) was 2690 nM; in assay [3] (setting [12]), no less than 26000 nM; in assay [4] (setting [12]), no less than 30100 nM; in assay [1] (setting [12]), 6290 nM; in assay [5] (setting [12]), no less than 70000 nM.

On to SVTKSSSWK, for which the Kd was 2.51 nM in assay [2] (setting [7]); 41.2 nM in assay [3] (setting [7]); 19600 nM in assay [4] (setting [7]); 7.62 nM in assay [1] (setting [7]); no less than 77700 nM in assay [5] (setting [7]).

Turning to LIVSLCPTKK, the Kd in assay [2] (setting [7]) is 56.9 nM; in assay [3] (setting [7]), 350 nM; in assay [4] (setting [7]), 11600 nM; in assay [1] (setting [7]), 226 nM; in assay [5] (setting [7]), no less than 70000 nM.

For IISRTRLYDY, the Kd in assay [2] (setting [7]) was 1270 nM; in assay [3] (setting [7]), 4360 nM; in assay [4] (setting [7]) it was 13200 nM; in assay [1] (setting [7]) it was 225 nM; in assay [5] (setting [7]), no less than 70000 nM.

As for KSNILMWNK, the Kd in assay [2] (setting [7]) was found to be 2.25 nM; in assay [3] (setting [7]) it was 2870 nM; in assay [4] (setting [7]), 1.01 nM; in assay [1] (setting [7]), 27.5 nM; in assay [5] (setting [7]), 13700 nM.

As for ALYYVHSLLY, the Kd is 9.2 nM in assay [2] (setting [7]); 2240 nM in assay [3] (setting [7]); 11200 nM in assay [4] (setting [7]); 0.39 nM in assay [1] (setting [7]); no less than 24200 nM in assay [5] (setting [7]).

For the sequence ILSKIPYLR, the Kd was determined as 30.7 nM in assay [2] (setting [7]); 13.3 nM in assay [3] (setting [7]); 2.54 nM in assay [4] (setting [7]); 605 nM in assay [1] (setting [7]); 97.4 nM in assay [5] (setting [7]).

For FIFSLKDTLK, the Kd in assay [3] (setting [9]) turned out to be 54.1 nM.

For the sequence EFIFSALDEK, the Kd was 1.42 nM in assay [2] (setting [7]); 1.3 nM in assay [3] (setting [7]); no less than 70000 nM in assay [4] (setting [7]); 15.5 nM in assay [1] (setting [7]); 1630 nM in assay [5] (setting [7]).

As for YLALMATFK, the Kd in assay [1] (setting [6]) is 7.13 nM.

As for ELAELLEMK, the equilibrium dissociation constant (Kd) in assay [2] (setting [7]) amounted to 1270 nM; in assay [3] (setting [7]), 13.3 nM; in assay [4] (setting [7]), 15900 nM; in assay [1] (setting [7]), 3800 nM; in assay [5] (setting [7]) it was 1210 nM.

For the sequence QILDNAAKY, the Kd is 8800 nM in assay [2] (setting [7]); no less than 77700 nM in assay [3] (setting [7]); no less than 77900 nM in assay [4] (setting [7]); no less than 78000 nM in assay [1] (setting [7]); no less than 77700 nM in assay [5] (setting [7]).

With KLITEWCCR, in assay [4] (setting [8]), the dissociation constant (Kd) was 10.3 nM.

In the case of NLDLFMSHVK, the Kd in assay [2] (setting [7]) is 68.8 nM; in assay [3] (setting [7]) it was 852 nM; in assay [4] (setting [7]) it was 7760 nM; in assay [1] (setting [7]), 19.4 nM; in assay [5] (setting [7]), 2880 nM.

As to AMYYAVLSEY, the Kd in assay [2] (setting [7]) is 89.8 nM; in assay [3] (setting [7]), 982 nM; in assay [4] (setting [7]) it was 2850 nM; in assay [1] (setting [7]), no more than 1 nM; in assay [5] (setting [7]), 5190 nM.
